Measured values published in patent publication EP4786496A1 (Nanjing Iaso Biotechnology Co., Ltd., dated 2026).

Assays:
[1] = target: T1, BAFF-R on the surface of BAFF-R-positive cells (K562-BAFF-R, NALM6, RS4, MEC1, JEKO1) (human, UniProt Q96RJ3 1-184); assay: flow cytometry, phage on K562-BAFF-R and NALM6 cells
T1 construct: The cell line is named under assay or readout of each row; K562-BAFF-R overexpresses BAFF-R; the others are human tumour lines that carry it natively; also called K562-BAFF-R cells; RS4-luc
T1 sequence: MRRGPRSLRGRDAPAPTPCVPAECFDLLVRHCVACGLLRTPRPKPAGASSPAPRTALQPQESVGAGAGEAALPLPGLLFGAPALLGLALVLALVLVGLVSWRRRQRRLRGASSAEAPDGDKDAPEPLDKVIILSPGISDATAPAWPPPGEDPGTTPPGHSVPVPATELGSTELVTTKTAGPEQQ

[2] = target: T2, BAFFR-mouse-rFc (50353-M31H, Sino) (mouse, UniProt Q9D8D0 1-71); assay: ELISA, antigen coated on plate, anti-human IgG HRP
T2 construct: Bought protein; also called Mouse BAFF-R; not shown: rFc
T2 sequence: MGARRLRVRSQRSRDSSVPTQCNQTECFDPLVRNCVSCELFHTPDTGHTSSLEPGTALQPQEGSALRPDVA

[3] = target: T3, BAFFR-cyno-His (BAF-CM10R, KACTUS) (cynomolgus, UniProt Q96RJ3 7-71 (human entry), limits assumed); assay: ELISA, antigen coated on plate, anti-human IgG HRP
T3 construct: Bought protein; also called Cyno BAFF-R; cynomolgus BAFF-R; not shown: His tag

[4] = target: T4, Recombinant biotinylated Human BAFF-R Protein (KACTUS, BAFF-R-HM401) (human, UniProt Q96RJ3 7-71, limits assumed, biotinylated (site not stated)); assay: ELISA, antigen coated on plate, anti-human IgG HRP
T4 construct: Bought protein; treated as one product; also called BAFF-R-his-Bio; BAFF-R-Bio-his; not shown: His tag
T4 sequence: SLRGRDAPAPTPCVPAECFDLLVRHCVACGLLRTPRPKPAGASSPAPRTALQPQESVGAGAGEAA

[5] = target: T5, His-tagged human BAFF-R antigen (BAR-H52H3, Acro) (human, UniProt Q96RJ3 7-71, limits assumed); assay: BLI (ForteBio Octet), His-tagged antigen on HIS1K sensor, antibody in solution
T5 construct: Bought protein used in BLI; not shown: His tag
T5 sequence: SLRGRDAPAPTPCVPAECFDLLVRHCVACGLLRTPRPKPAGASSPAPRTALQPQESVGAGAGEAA

B1: VAY736 positive control phage antibody clone (scFv)
scFv: QVQLQQSGPGLVKPSQTLSLTCAISGDSVSSNSAAWGWIRQSPGRGLEWLGRIYYRSKWYNSYAVSVKSRITINPDTSKNQFSLQLNSVTPEDTAVYYCARYQWVPKIGVFDSWGQGTLVTVSSGGGGSGGGGSGGGGSDIVLTQSPATLSLSPGERATLSCRASQFILPEYLSWYQQKPGQAPRLLIYGSSSRATGVPARFSGSGSGTDFTLTISSLEPEDFAVYYCQQFYSSPLTFGQGTKVEIK
notes: also called VAY736 antibody
[1]
  binding result: binds

B2: Clone 5 monoclonal antibody with Fc comprising S228P/L235E (05VH-hFc PE) (antibody, human IgG4 S228P, V domains shown)
VH: EVQLVESGGGVVQPGRSLRLTCAASGFTFSTSGMYWIRQAPGKGLEWVSYISSSSSTIYYADSVKGRFTISRDNSKNTLYLQMNSLRAEDTAVYYCVTQSCGAGKCYPGVWGQGTTVTVSS
notes: Single-domain VH fused to a human Fc, made in CHOS cells; also called Clone 05; clone 05 monoclonal antibody
[2]
  EC50: 3.4 nM
[3]
  EC50: 1.91 nM
[4]
  EC50: 0.965 nM
[5]
  Kd: 2.63 nM
  koff: 0.00163 s⁻¹
  kon: 622000 M⁻¹ s⁻¹
